Assay results from paper PMC12754628.

Molecular target: T1, CcpA (Staphylococcus aureus USA300) (UniProt P99175)
T1 sequence: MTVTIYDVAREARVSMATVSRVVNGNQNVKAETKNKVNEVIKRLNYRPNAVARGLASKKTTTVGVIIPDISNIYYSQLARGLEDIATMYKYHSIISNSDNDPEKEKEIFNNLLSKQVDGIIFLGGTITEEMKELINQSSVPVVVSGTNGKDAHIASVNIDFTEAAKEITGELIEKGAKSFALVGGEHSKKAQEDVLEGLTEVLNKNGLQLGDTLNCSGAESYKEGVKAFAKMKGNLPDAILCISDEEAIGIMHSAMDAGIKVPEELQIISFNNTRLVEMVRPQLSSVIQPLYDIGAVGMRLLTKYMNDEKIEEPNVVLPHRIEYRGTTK
Experiment: competition
Conditions: 10 mM Tris-HCl pH 8.0, 5 mM MgCl2, 1 mM DTT, 50 mM KCl, 0.05% Nonidet P-40, 2.5% glycerol, 25 C, 30 min; 6% native PAGE in 0.5x TBE

ATGCTTTACCAGCTTTGAATGCTGGAACTTTACTTGCTGGGATATCAATTTCTTTACCAGTTTGAGGGTTACGACCTTTACGTGCAGCACGTTCACGTACCTCAAAGTTACCGAAACCAATTAATTGTACTTTTTCACCTTTAGCAAGTGAGTTTTGGATTGATTCGAATACAGCATCTACTGCTGAACCAGCTTCTTTTT (double strand) [hu]
binding: no binding
